Data taken from patent publication US12440565.
One block for each binder: values may come before it.

Biological target: CD40 on the surface of mature dendritic cells (mDC) (human) (UniProt P25942)
Assay: cell-based or functional assay

Sequence of CD40 on the surface of mature dendritic cells (mDC) (human) (P25942 21-277): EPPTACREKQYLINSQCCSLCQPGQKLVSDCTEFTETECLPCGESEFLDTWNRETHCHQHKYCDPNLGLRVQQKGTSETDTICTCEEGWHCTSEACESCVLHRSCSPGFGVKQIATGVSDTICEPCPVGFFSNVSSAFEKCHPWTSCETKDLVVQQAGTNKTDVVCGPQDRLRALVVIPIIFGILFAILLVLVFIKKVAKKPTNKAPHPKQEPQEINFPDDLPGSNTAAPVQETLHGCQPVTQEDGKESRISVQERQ

CD83+ (%) of mDC, agonist at 2 µg/mL (control group 81.00): 95.7%
IL-12p70 (pg/mL), agonist at 2 µg/mL (control group 50.0): 1470 pg/mL
B1: Mitazalimab (antibody, INN chains, looked up, V domains shown)
VH: EVQLLESGGGLVQPGGSLRLSCAASGFTFSTYGMHWVRQAPGKGLEWLSYISGGSSYIFYADSVRGRFTISRDNSENALYLQMNSLRAEDTAVYYCARILRGGSGMDLWGQGTLVTVSS
VL: QSVLTQPPSASGTPGQRVTISCTGSSSNIGAGYNVYWYQQLPGTAPKLLIYGNINRPSGVPDRFSGSKSGTSASLAISGLRSEDEADYYCAAWDKSISGLVFGGGTKLTVL

CD83+ (%) of mDC at 0.001 µg/mL Cifurtilimab: 83.4%
CD83+ (%) of mDC at 0.01 µg/mL Cifurtilimab: 84.6%
CD83+ (%) of mDC at 0.1 µg/mL Cifurtilimab: 93.3%
CD83+ (%) of mDC at 1 µg/mL Cifurtilimab: 94.1%
CD83+ (%) of mDC at 3 µg/mL Cifurtilimab: 95.7%
CD83+ (%) of mDC at 10 µg/mL Cifurtilimab: 95.7%
CD83+ (%) of mDC, agonist at 2 µg/mL (control group 81.00): 93.2%
CD83+ (%), Cifurtilimab together with Atezolizumab, batch 1 (control with Atezolizumab alone 92.69): 96.9%
CD83+ (%), Cifurtilimab together with Atezolizumab, batch 2 (control with Atezolizumab alone 64.27): 92.3%
CD83+ (%), Cifurtilimab together with Atezolizumab, batch 3 (control with Atezolizumab alone 89.18): 97.6%
CD83+ (%), Cifurtilimab together with Atezolizumab, batch 4 (control with Atezolizumab alone 75.24): 96.1%
IL-12p70 (pg/mL) at 0.001 µg/mL Cifurtilimab: 10.2 pg/mL
IL-12p70 (pg/mL) at 0.01 µg/mL Cifurtilimab: 10 pg/mL
IL-12p70 (pg/mL) at 0.1 µg/mL Cifurtilimab: 309 pg/mL
IL-12p70 (pg/mL) at 1 µg/mL Cifurtilimab: 312 pg/mL
IL-12p70 (pg/mL) at 3 µg/mL Cifurtilimab: 397 pg/mL
IL-12p70 (pg/mL) at 10 µg/mL Cifurtilimab: 402 pg/mL
IL-12p70 (pg/mL), Cifurtilimab together with Atezolizumab, batch 1 (control with Atezolizumab alone 4.1): 450 pg/mL
IL-12p70 (pg/mL), Cifurtilimab together with Atezolizumab, batch 2 (control with Atezolizumab alone 4.8): 1220 pg/mL
IL-12p70 (pg/mL), Cifurtilimab together with Atezolizumab, batch 3 (control with Atezolizumab alone 5.7): 1110 pg/mL
IL-12p70 (pg/mL), Cifurtilimab together with Atezolizumab, batch 4 (control with Atezolizumab alone 5.0): 454 pg/mL
IL-12p70 (pg/mL), agonist at 2 µg/mL (control group 50.0): 1490 pg/mL
functional and activity indices of mDC (CD83, IL-12, T cell activation) against antibody concentration: > 0.1 µg/mL
increase of IFN-γ secreting T cells over control, Cifurtilimab together with Atezolizumab: 21.8%
increase rate of CD83 positive ratio over control, Cifurtilimab together with Atezolizumab: 19.1%
mean CD83+ cells (%), Cifurtilimab together with Atezolizumab (control 80.35%): 95.7%
mean IL-12 secretion, Cifurtilimab together with Atezolizumab (control 4.9 pg/mL): 746 pg/mL
B2: Cifurtilimab (antibody, INN chains, looked up, V domains shown)
VH: EVQLVESGGGLVQPGGSLRLSCAASGYSFTGYYIHWVRQAPGKGLEWVARVIPNAGGTSYNQKFKGRFTLSVDNSKNTAYLQMNSLRAEDTAVYYCAREGIYWWGQGTLVTVSS
VL: DIQMTQSPSSLSASVGDRVTITCRSSQSLVHSNGNTFLHWYQQKPGKAPKLLIYTVSNRFSGVPSRFSGSGSGTDFTLTISSLQPEDFATYFCSQTTHVPWTFGQGTKVEIK
